Columns and labels:
BMP signaling [1] = assay: BMP inhibition in mouse whole embryo culture; assay type: in vivo
Experimental: For mouse whole embryo cultures, e7.5 embryos were cultured in a 1:1 mixture of Ham's F12 medium and whole embryo culture rat serum (Harlan Labs) containing N-2 Supplement (Invitrogen). Vessels were placed on a roller culture apparatus (BTC Engineering, Cambridge, UK) and maintained for 2 days at 37° C. and gassed with 20% 02 and 5% CO2. BMP signaling was inhibited by treatment with 5 pM DMH-1, with DMSO serving as a vehicle control.
(§1) Tissue processing, immunofluorescence and microscopy. Tissues were fixed for 1-3 hours in 4% paraformaldehyde (PFA) on ice depending on the size of the tissue. Organoids and transplant engraftments were frozen in OCT. OCT sections were blocked using donkey serum (5% serum in 1×PBS plus 0.5% Triton-X) for 30 min and incubated with primary antibody overnight at 4° C. Slides were then washed 3× with 1×PBS plus 0.5% Triton-X and incubated in secondary antibody with DAPI in blocking buffer for 2 h at room temperature. See Table 2 for a list of antibodies and respective dilutions. Slides were then washed 2× with 1×PBS plus 0.5% Triton-X followed by a final wash in 1×PBS. Coverslips were then mounted using Fluoromount-G® (SouthernBiotech). Images were captured on a Nikon A1 confocal microscope and analyzed using Imaris Imaging Software (Bitplane). For whole-mount staining, tissues were processed similarly as above and then cleared in Murray's solution. Imaging was performed with a Nikon A1 confocal microscope.
(§2) Quantification of immunofluorescence images. Image quantitation of whole embryos was done by splitting images into separated channels and then measuring pixel area using ImageJ (NIH). Pixel area was determined for each channel, the ratio between channels was determined and the ratio for control treated embryos was represented as 100. Quantitation of in vitro and in vivo grown organoids was done on sections from which images were captured as explained above. The number of CDX2, GATA4 and SATB2 positive nuclei were quantified using the spot function in [marls following calibration with human biopsy samples.

BMP signaling [2] = assay: BMP inhibition in Xenopus tropicalis embryos; assay type: in vivo; details: DMH-1 20 pM vs DMSO
Experimental: BMP inhibition in frog and mouse embryos. Xenopus tropicalis embryo culture and small molecule treatments were performed as previously described (Rankin et al., 2012; Rankin et al., 2015). DMH-1 (Sigma D8946) was dissolved in DMSO, and used at final concentration of 20 pM; equal concentrations of DMSO vehicle were used on sibling embryos. Inhibitor treatment experiments were repeated twice with similar effects on the markers analyzed. For Xenopus in-situ hybridization analyses, DIG-labeled antisense RNA probes were generated using linearized full-length cDNA plasmid templates (X. tropicalis satb2 was purchased from ATCC, clone 7720194; HinDIII, T7 for probe; X. laevis satb2 was a gift for Tyler Square and Daniel Medeiros, University of Colorado-Boulder; Xbal, Sp6 for probe). Complete details describing probe synthesis and the in-situ hybridization protocol are available on Xenbase (hftp://wiki.xenbase.orq/xenwiki/index.php/Protocols).

human gut tube spheroids [3] = assay: HOX/MSX2 gene expression in patterned gut tube spheroids after 3 days (RNA-seq, QPCR); assay type: cell-based
Experimental: (§3) Patterning midgut/hingut spheroids into HIOs and HCOs. Spheroids were collected from 24 well plate and plated in Matrigel (BD). To generate proximal HIOs, spheroids were overlayed with intestinal growth medium (Advanced DMEM/F-12, N2, B27, 15 mM HEPES, 2 mM L-glutamine, penicillin-streptomycin) supplemented with 100 ng/mL EGF (R&D) alone, or 100 ng/mL EGF with 100 ng/ml NOGGIN (R&D). To generate HCOs, spheroids were overlayed with 100 ng/mL EGF plus 100 ng/mL BMP (R&D). For SHH experiments, 1 pM SAG (Tocris), 5 pM SAG or 2.5 pM Cyclopamine (Tocris) were added to control media for initial 3 days after which RNA samples were collected. Media was changed at 3 days with only EGF being maintained in the media for all patterning conditions. Media was then changed twice weekly thereafter. HIOs and HCOs were replated in fresh Matrigel every 14 days.
(§4) RNA isolation and QPCR. RNA was extracted using Nucleospin® RNA extraction kit (Macharey-Nagel) and reverse transcribed into cDNA using Superscript VILO (Invitrogen) according to manufacturer's protocols. QPCR primers were designed using the qPrimerDepot webased tool (primerdepot.nci.nih.gov). QPCR was performed using Quantitect SYBR® Green PCR kit (Qiagen) and a QuantStudio™ 6 Flex Real-Time PCR System (Applied Biosystems).

human gut tube spheroids [4] = assay: Patterning of human gut tube spheroids (pSMAD1/5/8 and SATB2 staining); assay type: cell-based; details: spheroids treated for 12 hours; 100 ng/mL
Experimental: as §3, with “Media was then changed twice weekly thereafter. HIOs and HCOs were replated in fresh Matrigel every 14 days.” left out
Tissue processing, immunofluorescence and microscopy. […] Images were captured on a Nikon A1 confocal microscope and analyzed using Imaris Imaging Software (Bitplane). […]
as §2, with “The number of CDX2, GATA4 and SATB2 positive nuclei were quantified using the spot function in [marls following calibration with human biopsy samples.” left out

[5] = tested on: human intestinal organoids; assay: Regional markers in organoids after prolonged in vitro culture (IF, QPCR); assay type: cell-based
Experimental: as §3, §1, §2, §4

transplanted organoids = assay: Transplantation of patterned organoids under the mouse kidney capsule; assay type: in vivo
Experimental: as §1

organoid mesenchyme = assay: Patterning markers in isolated organoid mesenchyme cultures (QPCR); assay type: cell-based, human; details: mesenchymal cell cultures expanded for 2-3 weeks
Experimental: as §4

[6] = 28-day old organoids after initial 3 day treatment

With `CC(C)Oc1ccc(-c2cnc3c(-c4ccnc5ccccc45)cnn3c2)cc1` [DMH-1] the “Satb2 expression in the first brachial arch” value (BMP signaling [1]; DMH-1 treated mouse embryos) was “lost”, the “Satb2 expression in the posterior gut tube” value (BMP signaling [1]; e7.5 mouse embryos, 48 hours of DMH-1 treatment) was “loss of Satb2 expression” and the pSmad1/5/8 levels (BMP signaling [1]; e7.5 mouse embryos, 48 hours of DMH-1 treatment, 5 µM DMH-1 vs DMSO) was “significant reduction”. For the same molecule, the “TGFI3 signaling as measured by pSmad2/3 levels” value (BMP signaling [1]; mouse embryos cultured in DMSO or DMH-1) was “no impact” and the “Satb2 expression in the hindgut and brachial arches” value (BMP signaling [2]) was “loss of Satb2 expression”.

With `CNC1CCC(N(Cc2cccc(-c3ccncc3)c2)C(=O)c2sc3ccccc3c2Cl)CC1` (stereo not shown) [SAG] the “SAG-mediated activation of MSX2, HOXA13, HOXD13 relative to activation mediated by BMP2” value (human gut tube spheroids [3]; 3 days) was “only a fraction” and the “activation of MSX2, HOXA13 and HOXD13 (QPCR)” value (human gut tube spheroids [3]; SAG added to control media for initial 3 days) was “concentration dependent activation”.

B1: NOGGIN: BMP inhibitor NOGGIN (R&D), 100 ng/ml, used to generate proximal HIOs (protein, UniProt Q13253 28-232, looked up)
Noggin: QHYLHIRPAPSDNLPLVDLIEHPDPIFDPKEKDLNETLLRSLLGGHYDPGFMATSPPEDRPGGGGGAAGGAEDLAELDQLLRQRPSGAMPSEIKGLEFSEGLAQGKKQRLSKKLRRKLQMWLWSQTFCPVLYAWNDLGSRFWPRYVKVGSCFSKRSCSVPEGMVCKPSKSVHLTVLRWRCQRRGGQRCGWIPIQYPIISECKCSC
For B1, the “BMP signaling levels by nuclear pSMAD1/5/8 staining” value (human gut tube spheroids [4]) was “abolished this staining”, the “SATB2 expression after re-patterning with NOGGIN” value ([5]; 3-day BMP treated spheroids shifted to NOGGIN-containing media for 3 days) was “a subset of organoids lost SATB2 expression” and the “Levels of ONECUT1 (marker of proximal small intestine)” value [5, 6] was “highest”. The “SATB2 in the epithelium” value [5, 6] was “absent”, the “MUC5B staining (colon-specific goblet cell marker)” value ([5]; 28-day organoids) was “absent” and the “goblet cells by intracellular MUC2 staining” value ([5]; at 28 days) was “rare intracellular MUC2 staining”. For the same molecule, the “efficiency of organoid engraftment” value (transplanted organoids; compared with HCOs) was “more efficient”, the “epithelial morphology of transplanted organoids” value (transplanted organoids; under the mouse kidney capsule for 6-10 weeks) was “formed well-defined crypts and tall villi” and the “HOXD3 expression / proximal identity of mesenchyme” value (organoid mesenchyme) was “stable proximal identity”.

Reference: patent US11767515B2, “Colonic organoids and methods of making and using same” (Children's Hospital Medical Center, priority 2016, dated 2023)
